Reference: IntAct's records for PubMed 33758649

B1: Protein PALS1 (Homo sapiens), Q8N3R9 (parent)
chain: MTTSHMNGHVTEESDSEVKNVDLASPEEHQKHREMAVDCPGDLGTRMMPIRRSAQLERIRQQQEDMRRRREEEGKKQELDLNSSMRLKKLAQIPPKTGIDNPMFDTEEGIVLESPHYAVKILEIEDLFSSLKHIQHTLVDSQSQEDISLLLQLVQNKDFQNAFKIHNAITVHMNKASPPFPLISNAQDLAQEVQTVLKPVHHKEGQELTALLNTPHIQALLLAHDKVAEQEMQLEPITDERVYESIGQYGGETVKIVRIEKARDIPLGATVRNEMDSVIISRIVKGGAAEKSGLLHEGDEVLEINGIEIRGKDVNEVFDLLSDMHGTLTFVLIPSQQIKPPPAKETVIHVKAHFDYDPSDDPYVPCRELGLSFQKGDILHVISQEDPNWWQAYREGDEDNQPLAGLVPGKSFQQQREAMKQTIEEDKEPEKSGKLWCAKKNKKKRKKVLYNANKNDDYDNEEILTYEEMSLYHQPANRKRPIILIGPQNCGQNELRQRLMNKEKDRFASAVPHTTRSRRDQEVAGRDYHFVSRQAFEADIAAGKFIEHGEFEKNLYGTSIDSVRQVINSGKICLLSLRTQSLKTLRNSDLKPYIIFIAPPSQERLRALLAKEGKNPKPEELREIIEKTREMEQNNGHYFDTAIVNSDLDKAYQELLRLINKLDTEPQWVPSTWLR

Variants of: B1
Conditions: with vemp_sars2 E

Variant	effect of a mutation on the interaction
F318W	increasing interaction strength
